Results from patent publication US20240116985A1 (published 2024).
Blank lines part the entries; values can stand above or below the binder they belong to. Starred links: 1 amine or outer side, 2 acyl side, 3 side chain; linkers in the order of their positions; H or OH if unused. Positions of bridges follow the written chain, without caps; N, C: chain ends. Non-standard residues stand in square brackets, D forms with d. Primed or numbered codes have the meaning given here. RdN″ = (R)-4-(((allyloxy)carbonyl)(methyl)amino)-2-amino-2-methylbutanoic acid (stapling residue), C=CCOC(=O)N(C)CC[C@@](C)(N[*:1])C(=O)[*:2]; PyrS(3) = (S)-1-((allyloxy)carbonyl)-3-aminopyrrolidine-3-carboxylic acid, stapling residue, C=CCOC(=O)N1CC[C@@](N[*:1])(C(=O)[*:2])C1; PyrS″ = (S)-1-((allyloxy)carbonyl)-3-aminopyrrolidine-3-carboxylic acid (stapling residue), C=CCOC(=O)N1CC[C@@](N[*:1])(C(=O)[*:2])C1; Az = 1-((allyloxy)carbonyl)-3-aminoazetidine-3-carboxylic acid (stapling residue), C=CCOC(=O)N1CC(N[*:1])(C(=O)[*:2])C1; PyrS = (S)-1-((allyloxy)carbonyl)-3-aminopyrrolidine-3-carboxylic acid, C=CCOC(=O)N1CC[C@@](N[*:1])(C(=O)[*:2])C1; Phe(3,4-F2) = N[C@@H](Cc1ccc(F)c(F)c1)C(=O)O; S7 = C[C@@](CCCCCC=[*:3])(N[*:1])C(=O)[*:2]; d(αMeF) = C[C@@](N)(Cc1ccccc1)C(=O)O; 2Pal = N[C@@H](Cc1ccccn1)C(=O)O; 3Pal = N[C@@H](Cc1cccnc1)C(=O)O; 4Pal = N[C@@H](Cc1ccncc1)C(=O)O; R8 = C=CCCCCCC[C@@](C)(N)C(=O)O; Cha = N[C@@H](CC1CCCCC1)C(=O)O; Nle = CCCC[C@H](N)C(=O)O

Columns and labels:
[1] = molecular target: T1, full-length beta-Catenin (Uniprot ID P35222) (Homo sapiens (Human), UniProt P35222 2-781); test: AlphaScreen competition; full-length beta-catenin, biotin-TCF4(10-53) probe
T1 construct: Used full-length in both the FP and the AlphaScreen assay; also called B-Catenin; bCat
T1 sequence: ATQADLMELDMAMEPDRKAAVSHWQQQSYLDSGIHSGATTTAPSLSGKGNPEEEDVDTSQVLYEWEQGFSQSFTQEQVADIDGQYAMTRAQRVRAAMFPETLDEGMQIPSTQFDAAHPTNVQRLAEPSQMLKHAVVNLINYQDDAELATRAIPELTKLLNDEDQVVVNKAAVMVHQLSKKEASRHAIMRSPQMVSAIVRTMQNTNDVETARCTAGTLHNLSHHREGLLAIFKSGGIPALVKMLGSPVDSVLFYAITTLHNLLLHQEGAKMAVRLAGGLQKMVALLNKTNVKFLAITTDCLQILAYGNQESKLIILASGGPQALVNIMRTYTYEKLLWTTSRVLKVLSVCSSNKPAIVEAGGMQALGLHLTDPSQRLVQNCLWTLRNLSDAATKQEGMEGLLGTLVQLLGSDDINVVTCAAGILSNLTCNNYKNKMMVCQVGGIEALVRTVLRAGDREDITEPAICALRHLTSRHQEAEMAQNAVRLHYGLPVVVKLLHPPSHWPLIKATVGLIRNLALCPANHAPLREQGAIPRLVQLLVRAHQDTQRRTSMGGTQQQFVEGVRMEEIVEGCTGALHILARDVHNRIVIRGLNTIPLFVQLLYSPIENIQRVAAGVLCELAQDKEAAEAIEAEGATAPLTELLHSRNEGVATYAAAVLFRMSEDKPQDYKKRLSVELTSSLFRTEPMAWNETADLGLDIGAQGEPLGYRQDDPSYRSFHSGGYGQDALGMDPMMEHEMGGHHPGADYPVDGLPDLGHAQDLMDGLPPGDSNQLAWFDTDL
Procedure: (§1) Equal volume of the titrated peptide was added to the plate and incubated for 15 minutes at 20° C. Then 4 uL of donor and 4 uL acceptor beads at 10 ug/mL were added to the plate, for a 16 uL reaction pool and protected from light for 60 minutes at 20° C. prior to read. Reads were performed on a CLARIOstar plate reader (BMG Labtech) in duplicate, and data were fitted to a 1:1 binding model with hill slope using an in-house script. All provided concentrations are final concentrations.

[2] = molecular target: T2, full-length beta-Catenin (Uniprot ID P35222) (Homo sapiens (Human), UniProt P35222 2-781); test: AlphaScreen competition vs biotin-TCF4(10-53) on full-length beta-catenin
T2 construct: The assay text says 'full-length'; also called B-Catenin; bCat
T2 sequence: T1 sequence
Procedure: as §1

B4: I-82 (peptide)
peptide: Ac-FDA[R8]DDAAFV[PyrS″][3Pal]WQ-NH2
modifications: staple 4-11
notes: Stapled peptide; also called Ac-Phe-Asp-Ala-R8-Asp-Asp-Ala-Ala-Phe-Val-PyrS-3PyrA-Trp-Gln-NH2
EC50 [1]: ≥ 10 µM

B5: I-40 (peptide)
peptide: Ac-FDA[R8]DDAAFV[Az]FWQ-NH2
modifications: staple 4-11; not fully specified; printed as Ac-Phe-Asp-Ala-R8-Asp-Asp-Ala-Ala-Phe-Val-Az-Phe-Trp-Gln-NH2
notes: Stapled peptide composition
EC50 [2]: ≥ 10 µM

B6: I-85 (peptide)
peptide: Ac-FDA[R8]DDAAFV[PyrS][4Pal]WQ-NH2
modifications: staple 4-11; not fully specified; printed as Ac-Phe-Asp-Ala-R8-Asp-Asp-Ala-Ala-Phe-Val-PyrS-4PyrA-Trp-Gln-NH2
notes: Stapled peptide; also called Ac-Phe-Asp-Ala-R8-Asp-Asp-Ala-Ala-Phe-Val-PyrS-4PyrA-Trp-Gln-NH2
EC50 [1]: ≥ 10 µM

B10: I-46 (peptide)
peptide: FDAXDDAAFVXFWQ
modifications: not fully specified; N-terminal Ac; C-terminal NH2; RgN at 4 and S7 at 11, stapled
notes: Stapled peptide; also called Ac-Phe-Asp-Ala-RgN-Asp-Asp-Ala-Ala-Phe-Val-S7-Phe-Trp-Gln-NH2
EC50 [1]: ≥ 10 µM

B11: I-57 (peptide)
peptide: Ac-FDA[R8]D[d(αMeF)]AAFV[PyrS″]FWQ-NH2
modifications: staple 4-11; not fully specified
notes: Stapled peptide; also called Ac-Phe-Asp-Ala-R8-Asp-aMeDF-Ala-Ala-Phe-Val-PyrS-Phe-Trp-Gln-NH2
EC50 [1]: ≥ 10 µM

B13: I-62 (peptide)
peptide: Ac-FDA[R8]DDAAFV[PyrS″]YWQ-NH2
modifications: staple 4-11; not fully specified; printed as Ac-Phe-Asp-Ala-R8-Asp-Asp-Ala-Ala-Phe-Val-PyrS-Tyr-Trp-Gln-NH2
notes: Stapled peptide; also called Ac-Phe-Asp-Ala-R8-Asp-Asp-Ala-Ala-Phe-Val-PyrS-Tyr-Trp-Gln-NH2
EC50 [1]: ≥ 10 µM

B14: I-58 (peptide)
peptide: Ac-FDA[R8]DQAAFV[PyrS]FWQ-NH2
modifications: staple 4-11; not fully specified; printed as Ac-Phe-Asp-Ala-R8-Asp-Gln-Ala-Ala-Phe-Val-PyrS-Phe-Trp-Gln-NH2
notes: Stapled peptide; also called Ac-Phe-Asp-Ala-R8-Asp-Gln-Ala-Ala-Phe-Val-PyrS-Phe-Trp-Gln-NH2
EC50 [1]: ≥ 10 µM

B15: I-56 (peptide)
peptide: Ac-FDA[R8]D[d(αMeF)]AAFV[PyrS″]FWQ-NH2
modifications: staple 4-11
notes: as for B11
EC50 [1]: ≥ 10 µM

B16: I-63 (peptide)
peptide: Ac-FDA[R8]DDAAFV[PyrS]YWQ-NH2
modifications: staple 4-11; not fully specified; printed as Ac-Phe-Asp-Ala-R8-Asp-Asp-Ala-Ala-Phe-Val-PyrS-Tyr-Trp-Gln-NH2
notes: as for B13
EC50 [1]: ≥ 10 µM

B17: I-75 (peptide)
peptide: Ac-FDA[R8]DDAA[Cha]V[PyrS″]FWQ-NH2
modifications: staple 4-11; not fully specified; printed as Ac-Phe-Asp-Ala-R8-Asp-Asp-Ala-Ala-Cha-Val-PyrS-Phe-Trp-Gln-NH2
notes: Stapled peptide; also called Ac-Phe-Asp-Ala-R8-Asp-Asp-Ala-Ala-Cha-Val-PyrS-Phe-Trp-Gln-NH2
EC50 [1]: ≥ 10 µM

B18: I-48 (peptide)
peptide: FDXADDAAFXAFWQ
modifications: not fully specified; N-terminal Ac; C-terminal NH2; R8 at 3 and S5 at 10, stapled
notes: Stapled peptide; also called Ac-Phe-Asp-R8-Ala-Asp-Asp-Ala-Ala-Phe-S5-Ala-Phe-Trp-Gln-NH2
EC50 [1]: ≥ 10 µM

B19: I-43 (peptide)
peptide: FDAXDDAAFVXFWQ
modifications: not fully specified; Ac-Phe-Asp-Ala-RgN-Asp-Asp-Ala-Ala-Phe-Val-S8-Phe-Trp-Gln-NH2 as printed: N-terminal acetyl, C-terminal amide, RgN at 4 stapled to S8 at 11
notes: Stapled peptide composition
EC50 [2]: ≥ 10 µM

Other lines, results leading:

EC50 [1]: ≥ 10 µM
B1: I-76 (peptide)
peptide: Ac-FDA[R8]DDAA[Nle]V[PyrS(3)]FWQ-NH2
modifications: staple 4-11
notes: Stapled peptide; also called Ac-Phe-Asp-Ala-R8-Asp-Asp-Ala-Ala-nLeu-Val-PyrS-Phe-Trp-Gln-NH2

EC50 [1]: ≥ 10 µM
B2: I-84 (peptide)
peptide: Ac-FDA[R8]DDAAFV[PyrS″][4Pal]WQ-NH2
modifications: staple 4-11; not fully specified; printed as Ac-Phe-Asp-Ala-R8-Asp-Asp-Ala-Ala-Phe-Val-PyrS-4PyrA-Trp-Gln-NH2
notes: as for B6

EC50 [1]: 3.97 µM
B3: I-79 (peptide)
peptide: Ac-FDA[R8]DDAA[Phe(3,4-F2)]V[PyrS]FWQ-NH2
modifications: staple 4-11
notes: Stapled peptide; also called Ac-Phe-Asp-Ala-R8-Asp-Asp-Ala-Ala-34FF-Val-PyrS-Phe-Trp-Gln-NH2

EC50 [1]: 9.1 µM
B7: I-69 (peptide)
peptide: Ac-ADI[RdN″]D[Nle]AAFQ[S7]FWH-NH2
modifications: staple 4-11
notes: Stapled peptide; also called Ac-Ala-Asp-Ile-RdN-Asp-nLeu-Ala-Ala-Phe-Gln-S7-Phe-Trp-His-NH2

EC50 [1]: 8.12 µM
B8: I-68 (peptide)
peptide: Ac-ADI[RdN″]D[Nle]AAFQ[S7]FWH-NH2
modifications: staple 4-11
notes: as for B7

EC50 [1]: 9.78 µM
B9: I-81 (peptide)
peptide: Ac-FDA[R8]DDAAFV[PyrS″][2Pal]WQ-NH2
modifications: staple 4-11
notes: Stapled peptide; also called Ac-Phe-Asp-Ala-R8-Asp-Asp-Ala-Ala-Phe-Val-PyrS-2PyrA-Trp-Gln-NH2

EC50 [1]: 9.88 µM
B12: I-59 (peptide)
peptide: Ac-FDA[R8]DQAAFV[PyrS″]FWQ-NH2
modifications: staple 4-11; not fully specified; printed as Ac-Phe-Asp-Ala-R8-Asp-Gln-Ala-Ala-Phe-Val-PyrS-Phe-Trp-Gln-NH2
notes: as for B14
